Assay in all cases: co-immunoprecipitation from 293T cells: anti-HA IP, anti-V5 Western blot
In general terms: Immunoblotting shows a protein as a band on a membrane.

The target of one assay is T1, DOCK2 SH3 mutant G32E-HA (mouse, UniProt Q8C3J5 1-1828).
T1 construct: Glycine at position 32 of DOCK2 is substituted to glutamic acid; HA tag at the C terminus; Expressed in 293T cells; also called PcDNA G32E-HA

The next assay deals with T2, DOCK2 SH3 mutant P60E-HA (mouse, UniProt Q8C3J5 1-1828).
T2 construct: Proline at position 60 of DOCK2 is substituted to glutamic acid; HA tag at the C terminus; Expressed in 293T cells; also called PcDNA P60E-HA

A further assay has as its target T3, DOCK2 SH3 mutant F63E-HA (mouse, UniProt Q8C3J5 1-1828).
T3 construct: Phenylalanine at position 63 of DOCK2 is substituted to glutamic acid; HA tag at the C terminus; Expressed in 293T cells; also called PcDNA F63E-HA

For assay [1], the target named is T4, DOCK2ΔN-HA (amino acid residue 505-1828 of DOCK2, HA tag at the C terminus) (mouse, UniProt Q8C3J5 505-1828).
T4 construct: Expressed in 293T cells; also called PcDNA DOCK2ΔN-HA

Assay [2] has as its target T5, Tiam1 with HA tag at its C terminus (PCI Tiam1-HA) (mouse, UniProt Q60610 1-1591, limits assumed).
T5 construct: Expressed in 293T cells from the PCI vector; also called mouse Tiam1

Assay [3] concerns the target T6, full length DOCK2 with HA tag at the C terminus (PcDNA DOCK2-HA) (mouse, UniProt Q8C3J5 1-1828).
T6 construct: Expressed in 293T cells from PcDNA/His max vector and tested in cell lysate by co-immunoprecipitation; also called Hch; mouse DOCK2

T5 sequence (Q60610 other isoform, or with tags, fused parts or gaps limits assumed): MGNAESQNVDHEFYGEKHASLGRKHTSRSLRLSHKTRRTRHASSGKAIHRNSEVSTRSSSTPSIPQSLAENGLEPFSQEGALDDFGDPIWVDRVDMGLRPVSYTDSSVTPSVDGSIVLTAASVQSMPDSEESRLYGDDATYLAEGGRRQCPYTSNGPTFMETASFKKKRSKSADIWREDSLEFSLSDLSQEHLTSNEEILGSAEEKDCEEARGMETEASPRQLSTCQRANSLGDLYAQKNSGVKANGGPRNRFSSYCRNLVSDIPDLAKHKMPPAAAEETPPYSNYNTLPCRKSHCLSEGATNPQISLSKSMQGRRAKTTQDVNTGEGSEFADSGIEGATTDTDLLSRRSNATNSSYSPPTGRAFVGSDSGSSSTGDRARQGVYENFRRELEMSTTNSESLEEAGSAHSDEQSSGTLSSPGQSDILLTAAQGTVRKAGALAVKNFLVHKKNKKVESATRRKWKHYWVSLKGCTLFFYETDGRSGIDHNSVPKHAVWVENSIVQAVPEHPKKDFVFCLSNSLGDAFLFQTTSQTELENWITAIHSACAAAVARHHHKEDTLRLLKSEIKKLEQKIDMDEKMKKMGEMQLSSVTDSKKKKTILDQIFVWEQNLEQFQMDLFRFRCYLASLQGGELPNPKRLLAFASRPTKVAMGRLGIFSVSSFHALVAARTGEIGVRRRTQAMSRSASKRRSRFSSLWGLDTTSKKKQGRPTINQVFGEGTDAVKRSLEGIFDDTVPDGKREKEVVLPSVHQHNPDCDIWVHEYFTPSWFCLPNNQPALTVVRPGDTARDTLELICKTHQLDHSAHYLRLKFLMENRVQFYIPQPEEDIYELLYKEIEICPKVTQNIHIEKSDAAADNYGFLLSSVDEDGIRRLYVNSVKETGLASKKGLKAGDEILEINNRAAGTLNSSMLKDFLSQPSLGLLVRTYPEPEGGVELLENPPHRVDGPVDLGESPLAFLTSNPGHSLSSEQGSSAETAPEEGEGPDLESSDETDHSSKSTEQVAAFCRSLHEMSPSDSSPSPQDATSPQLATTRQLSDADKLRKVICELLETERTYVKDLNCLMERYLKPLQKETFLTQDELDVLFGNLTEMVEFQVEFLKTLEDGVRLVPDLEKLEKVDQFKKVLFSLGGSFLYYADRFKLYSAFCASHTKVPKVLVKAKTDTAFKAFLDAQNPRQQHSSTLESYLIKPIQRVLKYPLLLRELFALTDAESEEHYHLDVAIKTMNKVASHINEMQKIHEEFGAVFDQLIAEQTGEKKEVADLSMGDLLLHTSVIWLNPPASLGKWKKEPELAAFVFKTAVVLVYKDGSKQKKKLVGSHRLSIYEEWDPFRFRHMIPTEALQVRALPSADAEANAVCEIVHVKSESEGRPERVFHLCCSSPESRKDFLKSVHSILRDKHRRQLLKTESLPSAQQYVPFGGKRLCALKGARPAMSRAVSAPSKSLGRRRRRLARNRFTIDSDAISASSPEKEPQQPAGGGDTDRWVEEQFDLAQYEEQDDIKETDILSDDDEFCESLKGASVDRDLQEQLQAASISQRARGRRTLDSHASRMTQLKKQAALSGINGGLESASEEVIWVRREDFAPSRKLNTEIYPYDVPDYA
T4 sequence (Q8C3J5 other isoform, or with tags, fused parts or gaps mutant): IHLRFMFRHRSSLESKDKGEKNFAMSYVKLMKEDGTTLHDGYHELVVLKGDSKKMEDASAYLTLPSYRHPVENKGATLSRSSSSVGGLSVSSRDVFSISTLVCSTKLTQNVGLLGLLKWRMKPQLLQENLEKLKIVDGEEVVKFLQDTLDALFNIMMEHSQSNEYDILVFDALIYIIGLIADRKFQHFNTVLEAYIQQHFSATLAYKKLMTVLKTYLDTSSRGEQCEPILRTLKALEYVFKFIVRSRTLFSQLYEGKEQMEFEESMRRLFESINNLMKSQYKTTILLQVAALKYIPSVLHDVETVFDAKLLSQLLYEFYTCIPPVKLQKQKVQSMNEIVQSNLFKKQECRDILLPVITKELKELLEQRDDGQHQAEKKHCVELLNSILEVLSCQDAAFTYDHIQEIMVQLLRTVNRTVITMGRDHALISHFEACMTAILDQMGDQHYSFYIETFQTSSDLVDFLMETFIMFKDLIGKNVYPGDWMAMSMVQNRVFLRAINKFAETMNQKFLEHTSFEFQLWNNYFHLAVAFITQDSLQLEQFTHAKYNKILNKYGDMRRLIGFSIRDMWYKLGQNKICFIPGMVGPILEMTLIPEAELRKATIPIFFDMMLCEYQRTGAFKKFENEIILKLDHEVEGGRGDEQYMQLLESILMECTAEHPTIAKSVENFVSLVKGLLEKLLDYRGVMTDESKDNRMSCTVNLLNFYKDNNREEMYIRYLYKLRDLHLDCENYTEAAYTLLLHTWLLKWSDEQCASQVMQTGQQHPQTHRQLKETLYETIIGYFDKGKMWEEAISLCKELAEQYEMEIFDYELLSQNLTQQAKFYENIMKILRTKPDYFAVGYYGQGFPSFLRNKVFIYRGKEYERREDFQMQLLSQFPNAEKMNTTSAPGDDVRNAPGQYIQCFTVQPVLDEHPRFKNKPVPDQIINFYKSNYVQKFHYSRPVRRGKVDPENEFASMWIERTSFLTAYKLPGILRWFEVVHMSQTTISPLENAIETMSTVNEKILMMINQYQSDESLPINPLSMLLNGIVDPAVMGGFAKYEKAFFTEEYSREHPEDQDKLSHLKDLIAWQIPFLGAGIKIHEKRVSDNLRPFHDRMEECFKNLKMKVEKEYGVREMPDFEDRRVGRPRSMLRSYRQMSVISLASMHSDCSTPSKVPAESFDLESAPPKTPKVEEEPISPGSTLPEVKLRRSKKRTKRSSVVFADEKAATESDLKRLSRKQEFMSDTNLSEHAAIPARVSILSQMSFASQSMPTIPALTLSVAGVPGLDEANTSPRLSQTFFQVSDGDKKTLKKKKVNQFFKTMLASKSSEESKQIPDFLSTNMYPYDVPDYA
T3 sequence (Q8C3J5 other isoform, or with tags, fused parts or gaps F63E F63E limits assumed): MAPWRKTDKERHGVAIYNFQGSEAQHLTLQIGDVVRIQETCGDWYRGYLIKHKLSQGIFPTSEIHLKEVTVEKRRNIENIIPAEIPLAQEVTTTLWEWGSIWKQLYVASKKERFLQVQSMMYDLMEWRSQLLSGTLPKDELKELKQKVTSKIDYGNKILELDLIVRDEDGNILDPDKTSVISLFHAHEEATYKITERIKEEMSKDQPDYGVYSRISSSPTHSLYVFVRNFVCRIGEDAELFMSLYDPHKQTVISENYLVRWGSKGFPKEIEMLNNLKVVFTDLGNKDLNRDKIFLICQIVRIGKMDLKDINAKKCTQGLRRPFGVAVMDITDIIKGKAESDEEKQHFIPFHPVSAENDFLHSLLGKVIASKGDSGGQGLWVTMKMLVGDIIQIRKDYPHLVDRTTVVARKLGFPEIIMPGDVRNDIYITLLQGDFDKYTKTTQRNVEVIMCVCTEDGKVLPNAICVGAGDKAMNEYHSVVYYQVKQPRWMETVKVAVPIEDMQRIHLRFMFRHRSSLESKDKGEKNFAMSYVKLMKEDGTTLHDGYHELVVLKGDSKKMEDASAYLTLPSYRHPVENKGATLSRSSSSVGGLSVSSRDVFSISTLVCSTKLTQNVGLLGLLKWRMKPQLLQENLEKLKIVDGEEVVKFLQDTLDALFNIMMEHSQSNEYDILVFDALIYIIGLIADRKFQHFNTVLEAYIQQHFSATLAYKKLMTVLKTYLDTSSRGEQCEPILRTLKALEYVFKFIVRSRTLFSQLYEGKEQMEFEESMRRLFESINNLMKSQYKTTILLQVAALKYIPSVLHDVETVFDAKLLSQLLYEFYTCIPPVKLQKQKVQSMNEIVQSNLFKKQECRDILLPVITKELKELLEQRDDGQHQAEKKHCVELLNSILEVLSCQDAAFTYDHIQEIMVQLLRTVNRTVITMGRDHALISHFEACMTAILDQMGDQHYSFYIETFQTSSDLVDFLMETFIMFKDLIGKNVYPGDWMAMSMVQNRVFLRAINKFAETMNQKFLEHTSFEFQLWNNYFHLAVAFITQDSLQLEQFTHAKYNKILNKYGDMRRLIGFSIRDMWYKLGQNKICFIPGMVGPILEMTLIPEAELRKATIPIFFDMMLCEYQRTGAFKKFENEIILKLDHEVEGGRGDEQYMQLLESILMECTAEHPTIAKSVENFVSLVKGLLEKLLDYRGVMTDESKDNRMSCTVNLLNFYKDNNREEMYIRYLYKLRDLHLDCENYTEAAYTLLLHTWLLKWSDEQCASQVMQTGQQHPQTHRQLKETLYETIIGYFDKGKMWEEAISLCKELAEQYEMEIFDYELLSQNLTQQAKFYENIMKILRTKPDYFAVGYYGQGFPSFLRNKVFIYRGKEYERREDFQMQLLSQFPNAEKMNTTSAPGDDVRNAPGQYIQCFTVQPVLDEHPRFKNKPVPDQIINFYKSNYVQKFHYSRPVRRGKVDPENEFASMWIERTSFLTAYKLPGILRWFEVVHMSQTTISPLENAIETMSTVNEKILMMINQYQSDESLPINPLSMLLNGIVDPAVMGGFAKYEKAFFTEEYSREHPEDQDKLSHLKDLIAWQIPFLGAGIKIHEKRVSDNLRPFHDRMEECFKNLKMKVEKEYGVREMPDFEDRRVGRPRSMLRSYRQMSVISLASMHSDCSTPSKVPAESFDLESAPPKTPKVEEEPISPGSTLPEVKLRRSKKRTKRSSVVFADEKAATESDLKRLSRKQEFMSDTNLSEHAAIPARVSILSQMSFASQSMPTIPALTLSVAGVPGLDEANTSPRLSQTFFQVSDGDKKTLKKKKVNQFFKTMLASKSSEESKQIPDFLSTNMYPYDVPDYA
T1 sequence (Q8C3J5 other isoform, or with tags, fused parts or gaps G32E G32E limits assumed): as the sequence (Q8C3J5 other isoform, or with tags, fused parts or gaps F63E F63E limits assumed) above, with G32E, E63F counted along it
T2 sequence (Q8C3J5 other isoform, or with tags, fused parts or gaps P60E P60E limits assumed): as the sequence (Q8C3J5 other isoform, or with tags, fused parts or gaps F63E F63E limits assumed) above, with P60E, E63F counted along it
T6 sequence (Q8C3J5 other isoform, or with tags, fused parts or gaps limits assumed): as the sequence (Q8C3J5 other isoform, or with tags, fused parts or gaps F63E F63E limits assumed) above, with E63F counted along it

B1: full length ELMO1 with V5 tag (PcDNA ELMO1-V5) (other)
chain: MPPPSDIVKVAIEWPGAYPKLMEIDQKKPLSAIIKEVCDGWSLANHEYFALQHADSSNFYITEKNRNEIKNGTILRLTTSPAQNAQQLHERIQSSSMDAKLEALKDLASLSRDVTFAQEFINLDGISLLTQMVESGTERYQKLQKIMKPCFGDMLSFTLTAFVELMDHGIVSWDTFSVAFIKKIASFVNKSAIDISILQRSLAILESMVLNSHDLYQKVAQEITIGQLIPHLQGTDQEIQTYTIAVINALFLKAPDERRQEMANILAQKQLRYIILTHVIRAQRAINNEMAHQLYVLQVLTFNLLEDRMMTKMDPQDQAQRDIIFELRRIAFDAESEPNNSSGSMEKRKSMYTRDYKKLGFINHVNPAMDFTQTPPGMLALDNMLYFAKHHQDAYIRIVLENSSREDKHECPFGRSSIELTKMLCEILKVGELPSETCNDFHPMFFTHDRSFEEFFCICIQLLNKTWKEMRATSEDFNKVMQVVKEQVMRALTTKPSSLDQFKSKLQNLSYTEILKIRQSERMNQEDFQSRPILELKEKIQPEILELIKQQRLNRLVEGTCFRKLNARRRQDKFWYCRLSPNHKVLHYGDLEESPQGEVPHDSLQDKLPVADIKAVVTGKDCPHMKEKGALKQNKEVLELAFSILYDSNCQLNFIAPDKHEYCIWTDGLNALLGKDMMSDLTRNDLDTLLSMEIKLRLLDLENIQIPDAPPPIPKEPSNYDFVYDCN
notes: Expressed in 293T cells; also called mouse ELMO1; not shown: V5 (and His) tag from the PcDNA V5-His vector
For B1, the binding result (in the assay with DOCK2 SH3 mutant G32E-HA; in the assay with DOCK2 SH3 mutant P60E-HA; with DOCK2 SH3 mutant F63E-HA; in assay [1]) was “no binding” throughout.

B2: ELMO1-del1-V5 (amino acid residues 147-727 of ELMO1) (other)
chain: MKPCFGDMLSFTLTAFVELMDHGIVSWDTFSVAFIKKIASFVNKSAIDISILQRSLAILESMVLNSHDLYQKVAQEITIGQLIPHLQGTDQEIQTYTIAVINALFLKAPDERRQEMANILAQKQLRYIILTHVIRAQRAINNEMAHQLYVLQVLTFNLLEDRMMTKMDPQDQAQRDIIFELRRIAFDAESEPNNSSGSMEKRKSMYTRDYKKLGFINHVNPAMDFTQTPPGMLALDNMLYFAKHHQDAYIRIVLENSSREDKHECPFGRSSIELTKMLCEILKVGELPSETCNDFHPMFFTHDRSFEEFFCICIQLLNKTWKEMRATSEDFNKVMQVVKEQVMRALTTKPSSLDQFKSKLQNLSYTEILKIRQSERMNQEDFQSRPILELKEKIQPEILELIKQQRLNRLVEGTCFRKLNARRRQDKFWYCRLSPNHKVLHYGDLEESPQGEVPHDSLQDKLPVADIKAVVTGKDCPHMKEKGALKQNKEVLELAFSILYDSNCQLNFIAPDKHEYCIWTDGLNALLGKDMMSDLTRNDLDTLLSMEIKLRLLDLENIQIPDAPPPIPKEPSNYDFVYDCN
notes: Expressed in 293T cells; also called ELMO1-dell; PcDNA ELMO1-del1-V5; not shown: V5 (and His) tag from the PcDNA V5His vector
As to B2, the binding result in assay [2] is given as “no binding”.

B3: ELMO1-del8-V5 (amino acid residues 345-727 of ELMO1) (other)
chain: MEKRKSMYTRDYKKLGFINHVNPAMDFTQTPPGMLALDNMLYFAKHHQDAYIRIVLENSSREDKHECPFGRSSIELTKMLCEILKVGELPSETCNDFHPMFFTHDRSFEEFFCICIQLLNKTWKEMRATSEDFNKVMQVVKEQVMRALTTKPSSLDQFKSKLQNLSYTEILKIRQSERMNQEDFQSRPILELKEKIQPEILELIKQQRLNRLVEGTCFRKLNARRRQDKFWYCRLSPNHKVLHYGDLEESPQGEVPHDSLQDKLPVADIKAVVTGKDCPHMKEKGALKQNKEVLELAFSILYDSNCQLNFIAPDKHEYCIWTDGLNALLGKDMMSDLTRNDLDTLLSMEIKLRLLDLENIQIPDAPPPIPKEPSNYDFVYDCN
notes: Expressed in 293T cells; also called PcDNA ELMO1-del8-V5; not shown: V5 (and His) tag from the PcDNA V5His vector
With B3, the binding result in assay [2] is reported as “no binding”.

B4: ELMO1-del10-V5 (amino acid residues 1-613 of ELMO1) (other)
chain: MPPPSDIVKVAIEWPGAYPKLMEIDQKKPLSAIIKEVCDGWSLANHEYFALQHADSSNFYITEKNRNEIKNGTILRLTTSPAQNAQQLHERIQSSSMDAKLEALKDLASLSRDVTFAQEFINLDGISLLTQMVESGTERYQKLQKIMKPCFGDMLSFTLTAFVELMDHGIVSWDTFSVAFIKKIASFVNKSAIDISILQRSLAILESMVLNSHDLYQKVAQEITIGQLIPHLQGTDQEIQTYTIAVINALFLKAPDERRQEMANILAQKQLRYIILTHVIRAQRAINNEMAHQLYVLQVLTFNLLEDRMMTKMDPQDQAQRDIIFELRRIAFDAESEPNNSSGSMEKRKSMYTRDYKKLGFINHVNPAMDFTQTPPGMLALDNMLYFAKHHQDAYIRIVLENSSREDKHECPFGRSSIELTKMLCEILKVGELPSETCNDFHPMFFTHDRSFEEFFCICIQLLNKTWKEMRATSEDFNKVMQVVKEQVMRALTTKPSSLDQFKSKLQNLSYTEILKIRQSERMNQEDFQSRPILELKEKIQPEILELIKQQRLNRLVEGTCFRKLNARRRQDKFWYCRLSPNHKVLHYGDLEESPQGEVPHDSLQDKLPVADI
notes: Expressed in 293T cells; also called PcDNA ELMO1-del10-V5; PcDNA ELMO1-del10; not shown: V5 (and His) tag from the PcDNA V5His vector
For the molecule B4, the binding result in assay [3] is listed as “no binding”.

Source of the values: patent US20060234294A1 (JAPAN SCIENCE AND TECHNOLOGY AGENCY, published 2006).
